These results are taken from patent US20110225664, “MEGANUCLEASE VARIANTS CLEAVING A DNA TARGET SEQUENCE FROM A GLUTAMINE SYNTHETASE GENE AND USES THEREOF” (Cellectis, published 2011).

Positions count from the first letter of the chain named.

What all share (test): cell_activity; CHO extrachromosomal SSA assay
Data set [1] concerns the target T1, I-CreI heterodimer Mt 3C + Mt 4B (Chlamydomonas reinhardtii (engineered), UniProt P05725;P05725 SEQ:1-167,SEQ:1-167).
T1 chain 1: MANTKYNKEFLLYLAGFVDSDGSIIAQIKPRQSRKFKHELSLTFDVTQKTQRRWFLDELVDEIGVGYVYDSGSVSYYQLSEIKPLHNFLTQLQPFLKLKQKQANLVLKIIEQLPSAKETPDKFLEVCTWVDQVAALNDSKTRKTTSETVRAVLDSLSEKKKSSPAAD
T1 chain 2: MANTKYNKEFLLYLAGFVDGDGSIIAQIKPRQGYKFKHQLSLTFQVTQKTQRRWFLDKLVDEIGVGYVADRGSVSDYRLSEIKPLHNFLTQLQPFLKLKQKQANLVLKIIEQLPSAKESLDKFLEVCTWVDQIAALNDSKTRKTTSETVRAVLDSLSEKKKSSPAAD
As to the method:
(§1) CHO cells were transfected with Polyfect® transfection reagent according to the supplier's protocol (QIAGEN). 72 hours after transfection, the level of Beta galactosidase expression for each transfection was quantified using the Beta-Glo® Assay System (Promega). The Beta-Glo Assay contains a luciferin-galactoside substrate (6-O-β-galactopyranosylluciferin) that can be cleaved by β-galactosidase to form luciferin that is then utilized in a firefly luciferase reaction to generate light. For each transfection, approximately 100,000 cells in 100 μl of medium were combined with an equal volume of Beta-Glo lysis/revelation buffer as described by the manufacturer (Promega). After 30 minutes of incubation at room temperature, signal was measured with a luminometer (Perkin Elmer Victor multilabel plate reader).
(§2) Several variants described in examples 3, 5, 6, 7 and 8 were first recloned in pCLS1768 (FIG. 16). Then, in order to identify the heterodimer displaying the maximal cleavage activity with the GSCHO1 target in CHO cells, I-CreI variants cleaving the GSCHO1.3 or GSCHO1.4 targets (described in examples 3, 5, 6, 7 and 8) were tested together as heterodimers against the GSCHO1 target in the CHO extrachromosomal assay.

Data set [2] has as its target T2, I-CreI heterodimer Mt 3B + Mt 4C (Chlamydomonas reinhardtii (engineered), UniProt P05725;P05725 SEQ:1-167,SEQ:1-167).
T2 chain 1: T1 chain 1 with S20A, E58K, T119S, D121A, V133I
T2 chain 2: T1 chain 2 with G33S, Y34R, L120P
The protocol:
as §1, §2

Data set [3] concerns the target T3, I-CreI heterodimer Mt 3C + Mt 4C (Chlamydomonas reinhardtii (engineered), UniProt P05725;P05725 SEQ:1-167,SEQ:1-167).
T3 chain 1: T1 chain 1
T3 chain 2: T1 chain 2 with G33S, Y34R, L120P
As to the method:
as §1, §2

For data set [4], the target named is T4, I-CreI heterodimer Mt 3C + Mt 4D (Chlamydomonas reinhardtii (engineered), UniProt P05725;P05725 SEQ:1-167,SEQ:1-167).
T4 chain 1: T1 chain 1
T4 chain 2: T1 chain 2 with Q45R, A69H, R78I, L120P
The protocol:
as §1, §2

Data set [5] has as its target T5, I-CreI heterodimer Mt 3A + Mt 4C (Chlamydomonas reinhardtii (engineered), UniProt P05725;P05725 SEQ:1-167,SEQ:1-167).
T5 chain 1: T1 chain 1 with S20G, E58K, Y67H, T119S
T5 chain 2: T1 chain 2 with G33S, Y34R, L120P
The protocol: as §1, §2

Data set [6] deals with T6, I-CreI heterodimer Mt 3B + Mt 4D (Chlamydomonas reinhardtii (engineered), UniProt P05725;P05725 SEQ:1-167,SEQ:1-167).
T6 chain 1: T1 chain 1 with S20A, E58K, T119S, D121A, V133I
T6 chain 2: T1 chain 2 with Q45R, A69H, R78I, L120P
As to the method:
as §1, §2

Data set [7] has as its target T7, I-CreI heterodimer Mt 3A + Mt 4D (Chlamydomonas reinhardtii (engineered), UniProt P05725;P05725 SEQ:1-167,SEQ:1-167).
T7 chain 1: T1 chain 1 with S20G, E58K, Y67H, T119S
T7 chain 2: T1 chain 2 with Q45R, A69H, R78I, L120P
The protocol: as §1, §2

Data set [8] deals with T8, I-CreI heterodimer Mt 3B + Mt 4A (Chlamydomonas reinhardtii (engineered), UniProt P05725;P05725 SEQ:1-167,SEQ:1-167).
T8 chain 1: T1 chain 1 with S20A, E58K, T119S, D121A, V133I
T8 chain 2: T1 chain 2 with G20S, Q45K, V46M, A69H, R78I, L120P
As to the method: as §1, §2

In data set [9] the target is T9, I-CreI heterodimer Mt 3A + Mt 4B (Chlamydomonas reinhardtii (engineered), UniProt P05725;P05725 SEQ:1-167,SEQ:1-167).
T9 chain 1: T1 chain 1 with S20G, E58K, Y67H, T119S
T9 chain 2: T1 chain 2
The protocol:
as §1, §2

Data set [10] addresses T10, I-CreI heterodimer Mt 3B + Mt 4B (Chlamydomonas reinhardtii (engineered), UniProt P05725;P05725 SEQ:1-167,SEQ:1-167).
T10 chain 1: T1 chain 1 with S20A, E58K, T119S, D121A, V133I
T10 chain 2: T1 chain 2
As to the method: as §1, §2

Data set [11] has as its target T11, I-CreI heterodimer Mt 3A + Mt 4A (Chlamydomonas reinhardtii (engineered), UniProt P05725;P05725 SEQ:1-167,SEQ:1-167).
T11 chain 1: T1 chain 1 with S20G, E58K, Y67H, T119S
T11 chain 2: T1 chain 2 with G20S, Q45K, V46M, A69H, R78I, L120P
The protocol:
as §1, §2

B1: GSCHO1 (dsDNA)
DNA 1: TGGCATACAAGTTTCTGCCCCAGGGTGAGAAAGTCCAACAATCGTCTGTCA
DNA 2: TGACAGACGATTGTTGGACTTTCTCACCCTGGGGCAGAAACTTGTATGCCA
Consider B1, for which the activity was determined as 2.8e+06 luminescence units in [1]; 3.1e+06 luminescence units in data set [2]; 2.9e+06 luminescence units in [3]; 2.4e+06 luminescence units in [4]; 2e+06 luminescence units in data set [5]; 3.1e+06 luminescence units in data set [6]. Moreover, the activity came out at 2.5e+06 luminescence units in [7]; 500000 luminescence units in data set [8]; 2.3e+06 luminescence units in data set [9]; 3.1e+06 luminescence units in [10]; 2.8e+06 luminescence units in data set [11].
